# Assay results published in US7514534 (DYAX, dated 2009).
# T1: MMP-26 catalytic domain, tagged with hexa-histidine (human, UniProt Q9NRE1 90-261)
# T1 construct: the forward primer adds Met-Ala before it; also called MMP-26 target protein; Matrilysin-2; not shown: Also any N-terminal residues added by the forward primer (Met-Ala according to our card; the primers were not visible to me)
# T1 sequence: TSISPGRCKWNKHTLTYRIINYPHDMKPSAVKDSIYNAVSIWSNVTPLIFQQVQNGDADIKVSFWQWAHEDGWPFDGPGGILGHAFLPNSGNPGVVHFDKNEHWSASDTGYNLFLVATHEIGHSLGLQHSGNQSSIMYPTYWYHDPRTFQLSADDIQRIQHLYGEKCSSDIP
# Columns and labels:
# MMP-9 = target: T2, MMP-9 (UniProt P14780 107-707, limits assumed); test: cross-reactivity ELISA on coated MMP
# T2 construct: also called gelatinase
# MMP-3 = target: T3, MMP-3 (UniProt P08254 100-477, limits assumed); test: cross-reactivity ELISA on coated MMP
# T3 construct: also called stromelysin-1
# [1] = target: T1, MMP-26 catalytic domain, tagged with …; test: bead-based ELISA, MMP-26 on nickel beads, IgG4 culture supernatant
# T3 sequence (P08254 100-477 limits assumed): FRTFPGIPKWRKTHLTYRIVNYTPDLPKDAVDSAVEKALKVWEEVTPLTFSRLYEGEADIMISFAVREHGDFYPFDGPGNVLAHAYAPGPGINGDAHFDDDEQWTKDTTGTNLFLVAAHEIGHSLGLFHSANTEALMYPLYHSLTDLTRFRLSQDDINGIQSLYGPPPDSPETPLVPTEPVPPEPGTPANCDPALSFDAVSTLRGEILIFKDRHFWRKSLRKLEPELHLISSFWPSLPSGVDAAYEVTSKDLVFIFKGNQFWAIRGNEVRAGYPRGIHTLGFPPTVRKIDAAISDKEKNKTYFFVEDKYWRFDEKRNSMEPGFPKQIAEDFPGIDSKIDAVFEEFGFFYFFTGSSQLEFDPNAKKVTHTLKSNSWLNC
# T2 sequence (P14780 107-707 limits assumed): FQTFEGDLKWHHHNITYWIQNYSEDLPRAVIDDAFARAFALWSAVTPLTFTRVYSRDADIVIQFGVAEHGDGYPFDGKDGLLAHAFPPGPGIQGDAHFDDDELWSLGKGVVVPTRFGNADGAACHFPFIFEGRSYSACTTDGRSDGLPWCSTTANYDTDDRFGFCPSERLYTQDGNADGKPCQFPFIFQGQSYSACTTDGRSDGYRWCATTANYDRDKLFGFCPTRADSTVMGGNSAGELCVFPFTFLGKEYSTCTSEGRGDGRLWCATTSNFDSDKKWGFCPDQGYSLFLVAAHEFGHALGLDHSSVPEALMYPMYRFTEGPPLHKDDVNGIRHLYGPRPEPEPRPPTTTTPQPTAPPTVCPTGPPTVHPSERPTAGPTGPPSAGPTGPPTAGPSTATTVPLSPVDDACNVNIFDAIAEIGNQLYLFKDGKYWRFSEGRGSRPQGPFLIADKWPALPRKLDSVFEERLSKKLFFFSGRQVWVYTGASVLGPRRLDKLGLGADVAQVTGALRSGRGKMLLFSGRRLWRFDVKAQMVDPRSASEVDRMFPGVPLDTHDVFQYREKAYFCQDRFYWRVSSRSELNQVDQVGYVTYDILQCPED
binding result (MMP-9),binding result (MMP-3),F > B (fold over background) [1],Binder
no binding (tested: 2 µg/ml),no binding (tested: 2 µg/ml),2.5 fold over background,"A09 (antibody, human IgG4, V domains shown, whole human IgG4) VH: EVQLLESGGGLVQPGGSLRLSCAASGFTFSWYDMYWVRQAPGKGLEWVSSIYSSGGYTAYADSVKGRFTISRDNSKNTLYLQMNSLRAEDTAVYYCAKDRDPCSRTTCYNWFDPWGQGTLVTVSS VL: QSELTQPPSASGTPGQRVTISCSGGSSNIGSNFVYWYRQLPGTAPKLLIYRNYQRPSGVPDRFSGSKSGTSASLAISGLLSEDEADYYCAAWDDNVGGVFGSGTKVTVLG"
no binding (tested: 2 µg/ml),no binding (tested: 2 µg/ml),1.94 fold over background,"A08 (antibody, human IgG4, V domains shown, whole human IgG4) VH: EVQLLESGGGLVQPGGSLRLSCAASGFTFSVYDMPWVRQAPGKGLEWVSVIYPSGGFTRYADSVKGRFTISRDNSKNTLYLQMNSLRAEDTAVYYCAADPTIQLWAYYYGMDVWGQGTTVTVSS VL: QSVLTQPPSVSGTPGQRVTISCSGGYPNMGSNYAHWYQQLPGTAPKLLIYNDNQRPSGVPDRFSGSKSGTSASLAISGLRSEDEADYYCAAWDDSLSGPVFGGGTKLTVLG"
